The source of these data is paper PMC4227725 (Journal of the American Chemical Society, 2014).

The subject of data set [1] is HeLa cells. The settings on record: 2.5 μM, 30 min, 37 °C, heparin washes, phenol red-free medium.
Data set [2] concerns HeLa cells. As to conditions: Tat polymer 2.5 μM, chymotrypsin 1 μM, up to 14 h.

In the case of GSGSG [GSGSG polymer], in data set [1], the “fluorescence in live cells, Z-stack 1 μm slices (in words)” value is given as “no fluorescence was seen”. Take YGRKKRRQRRR [Tat polymer]: the “cell entry after incubation with chymotrypsin, time course (in words)” value in data set [2] is given as “retains the ability to enter cells”.
